Source: patent US20060171935A1, “Protecting cell therapy for neurological disorders including Parkinson's disease” (priority 2005, published 2006)
Substitutions are numbered along the chain they refer to. Names may count otherwise.

T1: citrate synthase (CS) (Sus scrofa, UniProt P00889)
T1 construct: purchased Sigma
T1 sequence (P00889 28-464): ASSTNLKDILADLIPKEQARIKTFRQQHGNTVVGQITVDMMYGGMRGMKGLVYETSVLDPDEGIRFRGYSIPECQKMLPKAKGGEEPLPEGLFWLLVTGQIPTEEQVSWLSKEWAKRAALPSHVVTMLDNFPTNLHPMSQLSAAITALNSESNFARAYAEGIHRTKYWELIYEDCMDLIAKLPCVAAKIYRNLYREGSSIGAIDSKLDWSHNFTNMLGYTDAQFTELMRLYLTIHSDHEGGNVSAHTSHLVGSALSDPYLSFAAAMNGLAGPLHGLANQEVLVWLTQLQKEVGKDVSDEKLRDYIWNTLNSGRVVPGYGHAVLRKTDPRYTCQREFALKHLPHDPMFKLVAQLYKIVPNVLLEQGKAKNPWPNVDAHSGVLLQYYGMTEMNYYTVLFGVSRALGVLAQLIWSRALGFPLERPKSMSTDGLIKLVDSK

B1: L166P DJ-1: Parkinsonism-associated L166P mutant of human DJ-1, recombinant or plasmid-expressed (protein, UniProt Q99497 1-189, looked up, variant L166P)
chain: MASKRALVILAKGAEEMETVIPVDVMRRAGIKVTVAGLAGKDPVQCSRDVVICPDASLEDAKKEGPYDVVVLPGGNLGAQNLSESAAVKEILKEQENRKGLIAAICAGPTALLAHEIGFGSKVTTHPLAKDKMMNGGHYTYSENRVEKDGLILTSRGPGTSFEFAPAIVEALNGKEVAAQVKAPLVLKD
B2: C53A: DJ-1 cysteine-to-alanine mutant at cysteine 53 (protein, UniProt Q99497 1-189, looked up, variant C53A)
chain: B1 chain with C53A, P166L
B3: Noggin: soluble Noggin, inhibits BMP signaling (protein, UniProt Q13253 28-232, looked up)
Noggin: QHYLHIRPAPSDNLPLVDLIEHPDPIFDPKEKDLNETLLRSLLGGHYDPGFMATSPPEDRPGGGGGAAGGAEDLAELDQLLRQRPSGAMPSEIKGLEFSEGLAQGKKQRLSKKLRRKLQMWLWSQTFCPVLYAWNDLGSRFWPRYVKVGSCFSKRSCSVPEGMVCKPSKSVHLTVLRWRCQRRGGQRCGWIPIQYPIISECKCSC

Key:
citrate synthase (CS) = biological target: T1, citrate synthase (CS); assay: Suppression of heat-induced aggregation of citrate synthase (chaperone assay); type: biochemical; settings: 0.8 μM CS, 43° C.
Description: To test the redox regulation of DJ-1, the inventors assayed chaperone activity in the CS aggregation assay in the presence or absence of the reducing agent DTT. […] (FIG. 22D). […] To further test whether redox regulation might govern DJ-1 chaperone activity, reactivation studies using reduced DJ-1 were performed. DTT-reduced DJ-1 was incubated with H2O2 (10 mM in aggregation buffer for 10 min at 4° C. followed by dialysis against aggregation buffer for 2 h), and subsequently chaperone activity was measured in the CS thermal aggregation assay. […] This was not an indirect effect of residual H2O2 on CS aggregation, as H2O2 treatment of CS increased aggregation (unpublished data).
CS aggregation was performed in 40 mM HEPES (pH 7.8), 20 mM potassium hydroxinde, 50 mM potassium chloride, and 10 mM ammonium sulfate, and monitored in a thermostat-controlled fluorescence spectrophotometer with excitation and emission wavelengths at 500 nm and slit widths at 2.5 nm. Insulin aggregation was performed as described (Giasson et al. 2000). CS, insulin, RNase A, and GST were obtained from Sigma; human Hsp27 was obtained from Stressgen.

CD thermal denaturation = type: physicochemical; settings: CD at 222 nm, range studied 0-90° C.
Source text: (G) Redox regulation is unaffected by the C106A mutation.
Molecular chaperones typically display marked stability to thermal stress (Sastry et al. 2002). […] (FIG. 28).

DJ-1-deficient ES cells = assay: Rescue of DJ-1-deficient ES cells from H2O2, MTT viability; type: cell-based, murine; settings: transient transfection, 10 μM H2O2 for 15 h
Description: (A) DJ-1 cysteine-to-alanine mutants C106A, C53A, and a triple mutant that harbors mutations at all three cysteines in DJ-1 (C106A/C53A/C46A), as well as L166P, were tested for in vitro chaperone activity by CS aggregation suppression assay. (B) Self-association of DJ-1 cysteine mutants. Murine neuroblastoma CAD cells were transiently cotransfected with Flag-tagged human DJ-1 vectors (either WT or mutant) along with WT YFP-tagged human DJ-1. Lysates were immunoprecipitated with anti-Flag antibodies and probed by Western blotting with an antibody specific for human DJ-1. […] Lysates represent 20% of the input for the immunoprecipitate; Flag-DJ-1 migrates at 22 kDa, and YFP-DJ-1 migrates at 50 kDa. (C) DJ-1-deficient ES cells were transiently transfected with vector alone, WT DJ-1, or DJ-1 cysteine mutants, and exposed to 10 μM H2O2 for 15 h followed by MTT assay. The viability of the cells in the absence of drug treatment was not altered by the expression of WT or mutant DJ-1). Data are shown as the mean±SEM and were analyzed by ANOVA with Fisher's post-hoc test. *p<0.05.
To confirm that altered sensitivity to oxidative stress is a consequence of the loss of DJ-1, ‘rescue’ experiments by overexpressing wild-type or mutant human DJ-1 in ‘knockout’ ES cells were performed. Plasmids encoding human wild-type DJ-1, PD-associated L166P mutant DJ-1, or vector alone, were transiently transfected into DJ-1 deficient clones, and these were subsequently assayed for sensitivity to H2O2 using the MTT viability assay.
In Vivo Assays. ES cells plated in 96-well format (2.3×10^4 cells/well) were treated for 15 hours with H2O2 in ES media deficient in β-mercaptoethanol (Abeliovich et al. 2000). Cell viability (as a percent of untreated control) was determined by MTT assay in triplicate (Fezoui et al. 2000). Annexin V/Propidium Iodide (Molecular probes) staining was performed per the manufacturer's instructions. For dihydrorhodamine-123 staining (DHR, Molecular probes) (Walrand et al. 2003), cells were preincubated for 30 min with DHR (5 μM), washed with PBS, then treated with H2O2 in ES media deficient in β-mercaptoethanol for 15 min at 37° C. The FACS analysis was performed using a FACSTAR sorter (Becton Dickinson). Dopamine uptake assay was performed essentially as described (Farrer et al. 1998). Reported values represent specific uptake from which non-specific uptake, determined in the presence of mazindol, was subtracted, and normalized for protein content (BCA kit, Pierce).

[1] = tested on: CAD murine neuroblastoma cells; assay: αSyn intracytoplasmic inclusions in CAD cells; type: cell-based; settings: co-overexpression with αSyn
Description: To further evaluate αSyn aggregation, the inventors performed immunohistochemical analyses of CAD cells transfected with αSyn along with DJ-1 or control vector (FIG. 25). Overexpression of αSyn in neuroblastoma cells induces the formation of visible cytoplasmic aggregates (Lee and Lee 2002) (FIGS. 25J-25L).
(§1) Quantification of CAD cell aggregates was performed using a Zeiss LSM Pascal confocal microscope (Zeiss, Oberkochen, Germany) with a 20× long working distance lens. Images were imported to NIH Image J for analysis. Images from tenrandomly selected fields in each of three wells were quantified for each condition. Cells containing at least one intracytoplasmic aggregate, independent of size or number per cell, were scored as positive for aggregates. This number was divided by the number of transfected cells per field, determined by GFP fluorescence.

[2] = tested on: CAD murine neuroblastoma cells; assay: Q333P NFL intracytoplasmic inclusions in CAD cells; type: cell-based; settings: co-overexpression with Q333P mutant NFL
Description: In a separate set of experiments, the inventors assayed the ability of DJ-1 to inhibit aggregation of a second substrate, neurofilament light subunit (NFL). Overexpression of a mutant form of human NFL, Q333P, by transient transfection of CAD murine neuroblastoma cells, leads to the accumulation of intracytoplasmic inclusions (Perez-Olle et al. 2002).
as §1

[3] = tested on: Undifferentiated ES cells; assay: Q333P mutant NFL toxicity, MTT reduction, undifferentiated ES cells; type: cell-based; settings: 72 h
Description: FIG. 30 depicts the additional studies of DJ-1 mutations. […] Cells from FIG. 4M were quantified via ToPro3 nuclear staining and are expressed as number of cells per field from ten independent fields in each of three wells. Data are shown as the mean±SEM and were analyzed by ANOVA with Fisher's post-hoc test. *p<0. […] GFP positive transfected cells from FIG. 5A-5L were quantified and are expressed as number of transfected cells per field from ten independent fields in each of three wells. Data are shown as the mean±SEM and were analyzed by ANOVA with Fisher's post-hoc test. *p<0. (C) Overexpression of WT DJ-1, but not L166P mutant DJ-1, rescues cells from Q333P mutant NFL toxicity. HeLa cells were transfected with Q333P mutant NFL along with WT human DJ-1, L166P mutant DJ-1, or vector control. After 72 h, cells were assayed by MTT reduction assay (which detects reduction of 3-(4,5-dimethylthiazol-2-yl)-2,5-diphenyltetrazolium bromide by metabolic enzymes) (Martinat et al. 2004). Data are shown as the mean±SEM and were analyzed by ANOVA with Fisher's post-hoc test. *p<0. […] Undifferentiated ES cells were transfected with Q333P mutant NFL along with WT human DJ-1, C53A mutant DJ-1, or vector control. After 72 h, cells were assayed by MTT reduction assay (Martinat et al. 2004). Data are shown as the mean±SEM and were analyzed by ANOVA with Fisher's post-hoc test. *p<0. […]

DY-1 ES cells = assay: Candidate soluble factors in DY-1 ES cell differentiation to dopamine neurons; type: cell-based, murine; settings: added at stages 4-5 of differentiation
Description: The availability of marked ES-derived ‘late’ dopamine neurons should facilitate the analysis of candidate soluble and cell-associated factors in the differentiation process. […] Briefly, DY-1 ES cells were differentiated using EB or SDIA and candidate factors were added to the standard differentiation protocol at stages 4-5 of differentiation (Lee et al., 2000).

| Molecule | suppression of heat-induced aggregation of CS (chaperone activity) (citrate synthase (CS)) | thermal unfolding transition (CD thermal denaturation) | viability of DJ-1 knockout cells in the presence of H2O2 (DJ-1-deficient ES cells) | number of cells containing αSyn aggregates [1] | accumulation of NFL inclusions [2] | rescue from Q333P mutant NFL toxicity [3] | generation of late dopamine neurons (eYFP fluorescence, DAT immunoreactivity, late DN markers) (DY-1 ES cells) |
| --- | --- | --- | --- | --- | --- | --- | --- |
| B1 | abrogated chaperone activity | does not exhibit a thermal unfolding transition | did not significantly alter the viability | fails to do so | failed to inhibit |  |  |
| B2 | completely abrogates chaperone activity |  | failed to protect |  |  | unable to rescue |  |
| B3 |  |  |  |  |  |  | did not detect any effect |
